# Experimental data published in IntAct's records for PubMed 17721446.
# B1: DNA repair protein RAD9 (Saccharomyces cerevisiae), P14737 (parent)
# chain: MSGQLVQWKSSPDRVTQSAIKEALHSPLADGDMNEMNVPVDPLENKVNSTNIIEGSPKANPNPVKFMNTSEIFQKSLGLLDESPRHDDELNIEVGDNDRPNANILHNERTPDLDRIANFFKSNRTPGKENLLTKYQSSDLEDTPLMLRKKMTFQTPTDPLEQKTFKKLKSDTGFCYYGEQNDGEENASLEVTEADATFVQMAERSADNYDCALEGIVTPKRYKDELSKSGGMQDERVQKTQIMISAESPNSISSYDKNKITGNGRTTRNVNKVFNNNEDNIGAIEEKNPVKKKSENYSSDDLRERNNQIIQSNESEEINELEKNLNVSGRENDVNNLDIDINSAVSGTPSRNNAEEEMYSSESVNNREPSKKWIFRYSKDKTENNSNRSTQIVNNPRTQEMPLDSISIDTQPLSKSFNTETNNELETQIIVSSLSQGISAQKGPVFHSTGQTEEIKTQIINSPEQNALNATFETPVTLSRINFEPILEVPETSSPSKNTMSKPSNSSPIPKEKDTFNIHEREVETNNVFSNDIQNSSNAATRDDIIIAGSSDFNEQKEITDRIYLQLSGKQISDSGSDETERMSPNELDTKKESTIMSEVELTQELPEVEEQQDLQTSPKKLVVEEETLMEIKKSKGNSLQLHDDNKECNSDKQDGTESLDVALIEHESKGQSSELQKNLMQLFPSESQEIIQNRRTIKRRQKDTIEIGEEEENRSTKTSPTKHLKRNSDLDAASIKREPSCSITIQTGETGSGKDSKEQSYVFPEGIRTADNSFLSKDDIIFGNAVWCQYTWNYKFYPGILLEVDTNQDGCWIYFETGRSLTKDEDIYYLDIRIGDAVTFDGNEYVVVGLECRSHDLNIIRCIRGYDTVHLKKKNASGLLGKRTLIKALSSISLDLSEWAKRAKIILEDNEKNKGDAYRYLRHPIRGRKSMTNVLSPKKHTDDEKDINTHTEVYNNEIESSSEKKEIVKKDSRDALAEHAGAPSLLFSSGEIRTGNVFDKCIFVLTSLFENREELRQTIESQGGTVIESGFSTLFNFTHPLAKSLVNKGNTDNIRELALKLAWKPHSLFADCRFACLITKRHLRSLKYLETLALGWPTLHWKFISACIEKKRIVPHLIYQYLLPSGESFRLSLDSPSKGGIIKSNNIFSFYTQFLRGSNLRDQICGVKKMLNDYIVIVWGRSELDSFVKFAFACLSAGRMLTIDLPNIDVDDTEPLLNALDSLVPRIGSELSNRKLKFLIYANENNGKSQMKLLERLRSQISLKFKKFNYIFHTESKEWLIQTIINEDTGFHDDITDNDIYNTISEVR
# Variants of: B1
# Conditions: with h2a1_yeast HTA1, P04911
# h2a1_yeast HTA1, P04911, sequence (P04911 whole entry): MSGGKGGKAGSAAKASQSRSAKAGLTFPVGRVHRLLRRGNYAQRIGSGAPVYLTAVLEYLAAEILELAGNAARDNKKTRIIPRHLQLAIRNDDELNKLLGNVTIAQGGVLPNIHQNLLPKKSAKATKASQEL
row,Variant,effect of a mutation on the interaction
1,K1088M,disrupting interaction
